Measurements as given in US20220177597A1 (OSSIANIX, published 2022).

Experiments:
[1] = molecular target: human CD98hc ectodomain (recombinant) (human) (UniProt P08195); assay: ELISA, VNAR-hFc in Expi293 medium on coated ectodomain
[2] = molecular target: mouse CD98hc ectodomain (recombinant) (mouse) (UniProt P10852); assay: as above
[3] = molecular target: T1, human serum albumin (human, UniProt P02768 25-609); assay: ELISA, VNAR-hFc in Expi293 medium on coated HSA (negative control)
T1 construct: Negative control antigen in ELISA; also called HSA
T1 sequence (P02768 25-609 limits assumed): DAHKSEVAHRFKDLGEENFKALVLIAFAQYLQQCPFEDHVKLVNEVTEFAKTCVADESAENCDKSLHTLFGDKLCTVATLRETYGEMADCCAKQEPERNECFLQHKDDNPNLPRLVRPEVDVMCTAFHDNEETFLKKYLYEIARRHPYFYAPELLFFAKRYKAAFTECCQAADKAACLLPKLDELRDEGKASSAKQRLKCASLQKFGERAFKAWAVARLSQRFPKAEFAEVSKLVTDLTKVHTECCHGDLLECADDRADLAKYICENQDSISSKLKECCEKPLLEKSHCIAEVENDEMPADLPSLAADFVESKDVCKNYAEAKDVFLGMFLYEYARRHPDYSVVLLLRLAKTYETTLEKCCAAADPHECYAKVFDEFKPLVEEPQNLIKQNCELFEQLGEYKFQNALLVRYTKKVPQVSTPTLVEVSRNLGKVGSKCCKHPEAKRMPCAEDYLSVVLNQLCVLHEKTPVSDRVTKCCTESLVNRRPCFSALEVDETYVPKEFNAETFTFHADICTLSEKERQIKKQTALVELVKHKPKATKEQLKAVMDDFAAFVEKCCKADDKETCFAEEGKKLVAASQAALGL
Text: The clones were reformatted as bivalent VNAR-Fc by cloning the VNARs into the commercial pFUSE vector (pFUSE-hIgG1e3-Fc2). The Fc region of the protein contained CH2 and CH3 domains with the hinge that served as a flexible spacer between the two parts of the Fc-fusion protein. N-termini of the construct contained the IL2 signal sequence to allow secretion. A HEK Expi293 expression system was used to transiently express the proteins. The VNAR clones were expressed as Fc formats in mammalian cells in small (1 ml) scale in 96-well plates. Media was collected and used directly for ELISA in order to confirm binding to the ectodomain of mouse and human CD98hc. Human serum albumin was used as the negative control.

[4] = molecular target: human CD98hc ectodomain (recombinant) (human) (UniProt P08195); assay: ELISA, purified VNAR-Fc titrated on plate-coated CD98hc (1 ug/mL)
[5] = molecular target: mouse CD98hc ectodomain (recombinant) (mouse) (UniProt P10852); assay: as above

Sequence of human CD98hc ectodomain (recombinant) (human) (P08195 206-630): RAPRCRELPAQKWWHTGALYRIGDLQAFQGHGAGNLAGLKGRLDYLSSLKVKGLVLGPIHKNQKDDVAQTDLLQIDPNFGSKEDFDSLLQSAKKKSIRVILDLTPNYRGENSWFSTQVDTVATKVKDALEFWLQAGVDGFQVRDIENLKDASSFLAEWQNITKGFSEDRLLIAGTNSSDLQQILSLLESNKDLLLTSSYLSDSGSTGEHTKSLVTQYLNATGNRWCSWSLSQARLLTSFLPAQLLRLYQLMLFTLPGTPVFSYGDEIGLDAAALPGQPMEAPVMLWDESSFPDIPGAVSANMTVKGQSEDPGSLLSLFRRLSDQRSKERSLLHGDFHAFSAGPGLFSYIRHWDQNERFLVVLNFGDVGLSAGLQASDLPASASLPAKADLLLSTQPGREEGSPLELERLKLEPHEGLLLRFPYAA
Sequence of mouse CD98hc ectodomain (recombinant) (mouse) (P10852 100-526): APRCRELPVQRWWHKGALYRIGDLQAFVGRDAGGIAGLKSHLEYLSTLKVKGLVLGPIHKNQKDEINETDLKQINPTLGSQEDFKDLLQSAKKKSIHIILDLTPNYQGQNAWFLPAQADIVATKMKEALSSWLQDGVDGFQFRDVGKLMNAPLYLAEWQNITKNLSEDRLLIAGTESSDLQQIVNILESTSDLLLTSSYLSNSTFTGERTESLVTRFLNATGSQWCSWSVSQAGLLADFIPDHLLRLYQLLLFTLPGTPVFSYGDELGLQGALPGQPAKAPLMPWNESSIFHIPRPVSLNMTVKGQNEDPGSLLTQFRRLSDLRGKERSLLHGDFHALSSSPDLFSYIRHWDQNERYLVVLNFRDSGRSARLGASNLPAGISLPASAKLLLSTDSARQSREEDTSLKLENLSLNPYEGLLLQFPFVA

| Binder | Binding [relative units] (relative units) [1] | Binding [relative units] (relative units) [2] | Binding [relative units] [3] | EC50 [4] | EC50 [5] |
| --- | --- | --- | --- | --- | --- |
| E12A VNAR-hFc fusion (Fc fusion, Bivalent VNAR-Fc, VNAR N-terminal to human IgG1 Fc; Expi293; not shown: human IgG1 Fc (hinge, CH2, CH3) of vector pFUSE-hIgG1e3-Fc2) ARVDQTPQTIAREEGESVTINCVVRDSNRALASTSWCSEKYVSTREESISKGGRYVETVNSGSKSFSLRINDLTVEDSGTYRCNVYFFPSFEVDVLQTNDVYGDGTAVTVNA | 0.049 | 0.065 | 0.063 relative units |  |  |
| H7 VNAR-hFc fusion (Fc fusion, Bivalent VNAR-Fc, VNAR N-terminal to human IgG1 Fc; Expi293; not shown: human IgG1 Fc (hinge, CH2, CH3) of vector pFUSE-hIgG1e3-Fc2) ARVDQTPQTITKEEGESLTINCVLRYNNPALASTSWYRKKSGSTREETISKGGRYVETVNSGSKSFSLRINDLTVEDSGTYRCNVYFFPSFLVDKLQSHDVYGDGTAVTVNA | 3.93 | 0.108 | 0.072 relative units | 0.006 µM | 0.504 µM |
| F11 VNAR-hFc fusion (Fc fusion, Bivalent VNAR-Fc, VNAR N-terminal to human IgG1 Fc; Expi293; not shown: human IgG1 Fc (hinge, CH2, CH3) of vector pFUSE-hIgG1e3-Fc2) ARVDQTPQTITKEEGESLTINCVLRGEFYALASTSWYRKKSGSTREETISKGGRYVETVNSGSKSFSLRINDLTVEDSGTYRCNVYGYRIFSPEVKGPNDVYGDGTAVTVNA | 3.03 | 0.096 | 0.072 relative units |  |  |
| E12 VNAR-hFc fusion (Fc fusion, Bivalent VNAR-Fc, VNAR N-terminal to human IgG1 Fc; Expi293; not shown: human IgG1 Fc (hinge, CH2, CH3) of vector pFUSE-hIgG1e3-Fc2) ARVDQTPQTITKEEGESLTINCVLRTQDPALASTSWYRKKSGSTREETISKGGRYVETVNSGSKSFSLRINDLTVEDSGTYRCNVYFLLAPTKTKLQGIDVYGDGTAVTVNA | 2.19 | 0.078 | 0.056 relative units | 0.056 µM | 0.819 µM |
| G6 VNAR-hFc fusion (Fc fusion, Bivalent VNAR-Fc, VNAR N-terminal to human IgG1 Fc; Expi293; not shown: human IgG1 Fc (hinge, CH2, CH3) of vector pFUSE-hIgG1e3-Fc2) ARVDQTPQTITKEEGESLTINCVLRVETRALASTSWYRKKSGSTREETISKGGRYVETVNSGSKSFSLRINDLTVEDSGTYRCNVYIRHYSEFTQAPFRDVYGDGTAVTVNA | 0.042 | 0.041 | 0.052 relative units |  |  |
| G10 VNAR-hFc fusion (Fc fusion, Bivalent VNAR-Fc, VNAR N-terminal to human IgG1 Fc; Expi293; not shown: human IgG1 Fc (hinge, CH2, CH3) of vector pFUSE-hIgG1e3-Fc2) ARVDQTPQTITKETGESLTINCVLRDSNCALSSTYWYRKKSGSTNEENISKGGRYVETVNSGSKSFSLKINDLTVEDSGTYRCKVVFKLFSGRACAGEKDVYGGGTVVTVNA | 0.043 | 0.041 | 0.051 relative units |  |  |
| F12 VNAR-hFc fusion (Fc fusion, Bivalent VNAR-Fc, VNAR N-terminal to human IgG1 Fc; Expi293; also called F12-hFc; clone F12; not shown: human IgG1 Fc (hinge, CH2, CH3) of vector pFUSE-hIgG1e3-Fc2) ARVDQTPQTITKEEGESLTINCVLRVHGRALASTSWYRKKSGSTREETISKGGRYVETVNSGSKSFSLRINDLTVEDSGTYRCNVYGLSFGDIEGVKKIDVYGDGTAVTVNA | 3.99 | 0.563 | 0.112 relative units | 0.012 µM | 0.072 µM |
| F1 VNAR-hFc fusion (Fc fusion, Bivalent VNAR-Fc, VNAR N-terminal to human IgG1 Fc; Expi293; also called Fl; not shown: human IgG1 Fc (hinge, CH2, CH3) of vector pFUSE-hIgG1e3-Fc2) ARVDQTPQTITKEEGESLTINCVLRVHGRALASTSWYRKKSGSTREETISKGGRYVETVNSGSKSFSLRINDLTVEDSGTYRCNVYGLSSGDIEGVKKIDVYGDGTAVTVNA | 3.76 | 0.115 | 0.073 relative units | 0.003 µM | 3.86 µM |
| H12 VNAR-hFc fusion (Fc fusion, Bivalent VNAR-Fc, VNAR N-terminal to human IgG1 Fc; Expi293; not shown: human IgG1 Fc (hinge, CH2, CH3) of vector pFUSE-hIgG1e3-Fc2) ARVDQTPQTITKEEGESLTINCVLRVHGCALASTSWYRKKSGSTREETISKGGRYVETVNSGSKSFSLRINDLTVEDSGTYRCNVYGLSFVDIEGVKKIDVYGDGTAVTVNA | 0.046 | 0.045 | 0.055 relative units |  |  |
| A8 VNAR-hFc fusion (Fc fusion, Bivalent VNAR-Fc, VNAR N-terminal to human IgG1 Fc; Expi293; not shown: human IgG1 Fc (hinge, CH2, CH3) of vector pFUSE-hIgG1e3-Fc2) ARVDQTPQTITKEEGESLTINCVLRRNFQLASTSWYRKKSGSTREETISKGGRYVETVNSGSKSFSLRINDLTVEDSGTYRCNVYGFVEFAKNIVEFIDVYGDGTAVTVNA | 2.97 | 0.135 | 0.065 relative units |  |  |
| H8 VNAR-hFc fusion (Fc fusion, Bivalent VNAR-Fc, VNAR N-terminal to human IgG1 Fc; Expi293; not shown: human IgG1 Fc (hinge, CH2, CH3) of vector pFUSE-hIgG1e3-Fc2) ARVDQTPQTITKETGESLTINCVLRDSNCALPSTYWYRKKSGSTNEESISKGGRYVETVNSGSKSFSLRINDLVVEDSGTYRCKVGNYCIRLCYDMKFAVDVYGGGTAVTVNA | 0.048 | 0.049 | 0.059 relative units |  |  |
| G12 VNAR-hFc fusion (Fc fusion, Bivalent VNAR-Fc, VNAR N-terminal to human IgG1 Fc; Expi293; not shown: human IgG1 Fc (hinge, CH2, CH3) of vector pFUSE-hIgG1e3-Fc2) ARVDQTPQTITKETGESLTINCVLRDSNCALSSTYWYRKKSGSTNEALISKGGRYVETVNSGSKSFSLRINDLTVEDSGTYRCNVVQDLRDDCFFRDVYGGGTAVTVNA | 0.044 | 0.044 | 0.054 relative units |  |  |
| C6 VNAR-hFc fusion (Fc fusion, Bivalent VNAR-Fc, VNAR N-terminal to human IgG1 Fc; Expi293; not shown: human IgG1 Fc (hinge, CH2, CH3) of vector pFUSE-hIgG1e3-Fc2) ARVDQTPQTITKETGESLTINCVLRDSNCALSSTYWYRKKSGSTNEALISKGGRYVETVNSGSKSFSLRINDLTVEDSGTYRCNVVYDLRDDCFFRDVYGGGTAVTVNA | 0.041 | 0.042 | 0.052 relative units |  |  |
| G3 VNAR-hFc fusion (Fc fusion, Bivalent VNAR-Fc, VNAR N-terminal to human IgG1 Fc; Expi293; not shown: human IgG1 Fc (hinge, CH2, CH3) of vector pFUSE-hIgG1e3-Fc2) ARVDQTPQTITKETGESLTINCVLRDNNCALSTTYWYRKKSGSTNEENISKGGRYVETVNSGSKSFSLRINDLTVEDSGTYRCKVHFFPSFCNSTSIRSVDVYGGGTVVTVNA | 1.48 | 0.041 | 0.053 relative units | 0.107 µM |  |
| D1 VNAR-hFc fusion (Fc fusion, Bivalent VNAR-Fc, VNAR N-terminal to human IgG1 Fc; Expi293; also called D1-hFc; not shown: human IgG1 Fc (hinge, CH2, CH3) of vector pFUSE-hIgG1e3-Fc2) ARVDQTPQTITKEEGESLTINCVLRHNYSALASTSWYRKKSGSTREETISKGGRYVETVNSGSKSFSLRINDLTVEDSGTYRCNVYGISFIEEKIRYDFDVYGDGTAVTVNA | 3.5 | 0.417 | 0.074 relative units | 0.028 µM | 0.19 µM |
| H6 VNAR-hFc fusion (Fc fusion, Bivalent VNAR-Fc, VNAR N-terminal to human IgG1 Fc; Expi293; not shown: human IgG1 Fc (hinge, CH2, CH3) of vector pFUSE-hIgG1e3-Fc2) ARVDQTPQTITKEEGESLTINCVLRTHSNALASTSWYRKKSGSTREETISKGGRYVETVNSGSKSFSLRINDLTVEDSGTYRCNVYAFLEIQPNIYHEFDVYGDGTAVTVNA | 3.31 | 0.186 | 0.06 relative units | 0.006 µM | 0.086 µM |
| B12 VNAR-hFc fusion (Fc fusion, Bivalent VNAR-Fc, VNAR N-terminal to human IgG1 Fc; Expi293; not shown: human IgG1 Fc (hinge, CH2, CH3) of vector pFUSE-hIgG1e3-Fc2) ARVDQTPRSVTKETGESLTINCVLRDASYALGSTCWYRKKSGSTNEESISKGGRYVETVNSGSKSFSLRINDLTVEDGGTYRCGVARGWRTLNYLCDVRTGEWSCVWRAAACGDGTAVTVNA | 0.076 | 0.084 | 0.081 relative units |  |  |
| H7A VNAR-hFc fusion (Fc fusion, Bivalent VNAR-Fc, VNAR N-terminal to human IgG1 Fc; Expi293; not shown: human IgG1 Fc (hinge, CH2, CH3) of vector pFUSE-hIgG1e3-Fc2) PGVDQTEQTIKKEEGESVTIKCVMRVKYPALASTSRYRKKSGSREETISKGGRYVETVNYSSKSISVRINDMTVEDSGRYRCNVYEEYAVDCDALVYQDVYGDGTAVTVNA | 0.043 | 0.043 | 0.054 relative units |  |  |
